Laboratory results from US20250026813A1 (published 2025).
Positions count from the first letter of the chain named.

B1: YANG-2105 (antibody, V domains shown)
VH: EVQLVESGGGLIQPGGSLRLSCAASGLTVSSNYMNWVRQAPGKGLEWVSVIYSGGSTFYTDSVKGRFTISRDNSKNTLNLQMNSLRAEDTAVYYCARDLGIRGGMDVWGQGTTVTVSS
VL: DIQLIQSPSFLSASVGDRVTITCWASQGISSYLAWYQQKPGKAPNLLIYAASTLQSGVPSRFSGSGSGTEFTLTISSLQPEDFATYYCQQLDGSLTFGGGTKVEIK
B2: YANG-2110 (antibody, V domains shown)
VH: EVQLVESGGGLIQPGGSLRLSCAASGFIVSRNYMSWVRQAPGKGLDWVSVIYSGGSTYYADSVKGRFTISRDNSKNTLYLQMNSLRAEDTAVYYCARSIAVAGEGLDSWGQGTLVTVSS
VL: EIVMTQSPATLSLSPGDRATLSCRASQSVSNIFISWYQQKPGQAPRLLIYGASIRATDIPARFSGSGSGTDFTLTISSLQPEDFAIYFCQQDYNLPLTFGGGTKVEIK
B3: YANG-2103 (antibody, V domains shown)
VH: EAQLVESGGGLIQSGGSLRLSCIASGLTVNSNYMNWVRQAPGKGLEWVSVIYSGGTTFYADSVKGRFTISRDNSKNTLYLQMTSLRAEDTAVYYCAREGYGMDVWGQGTTVTVSS
VL: SYVLTQPPSVSVAPGKTARINCGGNNFGSKSVHWYQQKPGQAPVLVIYYDSDRPSGIPERFSGSNSGNTATLTISRVEAGDEADYYCQVWDNSSDHFVFGAGTKVTVL
B4: YANG-2109 (antibody, V domains shown)
VH: QVQLVQSGAEVKKPGSSVKVSCKASGGTFSGYTISWIRQAPGQGLEWMGGIIPSFGSLNYGQKFQDRVSITTDELKSTVYMELSSLNSEDTAIYYCTRESITSGYYYGMAVWGQGTTVTVSS
VL: DIQMTQSPSSLSASVGDRVTITCRASQGIRDDLGWFQQKPGKAPKRLISAASSLQSGVPSRFSGSGSGTEFTLTISSLQPEDFATYYCLQHNSYPLTFGGGTKVEIR
B5: YANG-2107 (antibody, V domains shown)
VH: QVQLQESGPGLVKPSGTLSLTCAVSGGSIRSSNWWIWVRQSPGKGLEWIGEIYHGGNTNYNPSLKSRVTLSVDKSKNQFSLKLSSVTAADTAVYYCARALYDIGGVFDIWGQGTMVTVSS
VL: QSALTQPASVSGSPGQSISISCTGTSSDIGGYNYVSWYQQHPGKAPKLMIYDVSERPSGVSNRFSGSKSGNTASLTISGLQAEDEGDYYCCSYAANSNVVFGGGTKLSVL
B6: YANG-2108 (antibody, V domains shown)
VH: B5 VH with L11Q, S41P, N61S, T69S, L70I, Q78H, K82N, S84T, I103V
VL: B5 VL with S19T, T25S, I29V
B7: YANG-2102 (antibody, V domains shown)
VH: EVKLVESGGGLVQRGGSLRLSCAASGFTFSSHAMYWVRQIPGKGLEWVAGIGVAGDTFYPDSVKGRFTISRENANNSLSLQMDSLRTGDTAIYYCVRDGYSGSYPYHYYGMDVWGQGITVVVSS
VL: DIQLTQSPSSLSASVGDSVTITCRASQGIDTYLAWFQQKPGKAPKSLIYVASSLQSGVPSKFSGSGSGTDFTLTISSLLPEDFATYYCQQYKSYPWTFGQGTKVEIK
B8: YANG-2104 (antibody, V domains shown)
VH: EVKLVESGGGLVQPGGSLRLSCAASGFTFSSHAMYWVRQSPGKGLEWVSGIGVAGDTFYVDSVKGRFTISRENARNSLSLQMNSLRAGDTAVYYCARDGYSGTHPYHFYGMDVWGQGITVVVSS
VL: B7 VL with L4M, G28D, D30N
B9: YANG-2106 (antibody, V domains shown)
VH: QVQVVESGGGVVQPGRSLRLSCSASGFTFSTYGMHWVRQAPGKGLEWVAVIWYDGSNKYYADSVKGRFIISRDNSKNTLYLQMSSLRPDDTAVYYCVREGVADGMGVWGQGTTVTVSS
VL: NIQMTQSPSAMSASVGDRVTITCRARQDISTYLAWFQQKPGKVPKHLIYAASTLLSGVPSRFGGSGSGTEFTLTITSLQPEDFATYYCLHHNNYPWTFGQGTKVEIK

What follows are binders tested against SARS-CoV-2 spike protein bearing furin mutation and truncation in retention sequence (on pseudoviral envelope) (SARS-CoV-2, UniProt P0DTC2 14-1273) (assay: cell-based or functional assay).

Question: How did the “PV neutralization % (Ab 1 ug/mL)” value turn out when B1 was run?
Answer: Its value is 99.6%.

Question: B2 was tested. Which “PV neutralization % (Ab 1 ug/mL)” value did it give?
Answer: Its value is 99.9%.

Question: How did the “PV neutralization % (Ab 1 ug/mL)” value turn out when B3 was run?
Answer: The value was 97.7%.

Question: What does the source list for B4?
Answer: PV neutralisation IC50: 0.5 nM; PV neutralization % (Ab 1 ug/mL): 95%

Question: With B5 as the binder, how does the “PV neutralisation IC50” value read?
Answer: The value was 0.3 nM.

Question: What about the “PV neutralization % (Ab 1 ug/mL)” value of the same binder?
Answer: Its value is 61.2%.

Question: For B6, which “PV neutralisation IC50” value is on record?
Answer: Its value is 0.27 nM.

Question: What about the “PV neutralization % (Ab 1 ug/mL)” value of the same binder?
Answer: Its value is 81.8%.

Question: Which “PV neutralization % (Ab 1 ug/mL)” value does the source give for B7 here?
Answer: Its value is 99.4%.

Question: With B8 as the binder, how does the “PV neutralization % (Ab 1 ug/mL)” value read?
Answer: The value was 99.3%.

Question: B9 was tested. Which “PV neutralization % (Ab 1 ug/mL)” value did it give?
Answer: Its value is 93.3%.
